Measured values from patent publication US20030049732A1 (Human Genome Sciences, published 2003).
Substitutions are numbered along the chain they refer to. Names and notes keep the numbering of the source.

T1: Nod1 V41Q (human, UniProt Q9Y239 1-953)
T1 construct: also called V41 Q point mutant in the CARD
T1 sequence: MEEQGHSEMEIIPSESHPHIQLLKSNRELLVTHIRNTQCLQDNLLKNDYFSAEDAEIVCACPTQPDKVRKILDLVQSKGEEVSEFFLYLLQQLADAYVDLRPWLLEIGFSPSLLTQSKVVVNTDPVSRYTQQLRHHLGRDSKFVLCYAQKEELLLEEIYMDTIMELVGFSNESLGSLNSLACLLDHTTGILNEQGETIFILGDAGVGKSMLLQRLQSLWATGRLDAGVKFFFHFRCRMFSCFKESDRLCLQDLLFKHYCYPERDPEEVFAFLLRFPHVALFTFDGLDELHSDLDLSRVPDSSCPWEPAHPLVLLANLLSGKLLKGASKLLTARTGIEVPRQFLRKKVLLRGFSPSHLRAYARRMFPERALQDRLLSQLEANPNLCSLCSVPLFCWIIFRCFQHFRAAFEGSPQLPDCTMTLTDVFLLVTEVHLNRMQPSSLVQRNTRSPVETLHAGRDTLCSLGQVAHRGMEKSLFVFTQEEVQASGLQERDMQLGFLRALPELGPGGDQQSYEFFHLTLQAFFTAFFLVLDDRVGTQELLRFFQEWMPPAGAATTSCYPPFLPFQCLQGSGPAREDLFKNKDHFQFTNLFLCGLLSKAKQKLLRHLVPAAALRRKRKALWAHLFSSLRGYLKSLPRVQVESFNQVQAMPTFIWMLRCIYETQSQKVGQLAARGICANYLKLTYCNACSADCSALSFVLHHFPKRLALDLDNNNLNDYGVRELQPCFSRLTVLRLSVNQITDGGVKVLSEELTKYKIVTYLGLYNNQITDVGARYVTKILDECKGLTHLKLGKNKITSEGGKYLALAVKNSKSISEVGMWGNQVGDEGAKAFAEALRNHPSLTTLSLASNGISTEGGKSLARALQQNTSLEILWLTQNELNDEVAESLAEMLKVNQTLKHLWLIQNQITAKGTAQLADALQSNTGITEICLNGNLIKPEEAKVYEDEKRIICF

T2: Nod1 mutant, residues 126-953 (human, UniProt Q9Y239 126-953)
T2 construct: also called mutant lacking the CARD
T2 sequence: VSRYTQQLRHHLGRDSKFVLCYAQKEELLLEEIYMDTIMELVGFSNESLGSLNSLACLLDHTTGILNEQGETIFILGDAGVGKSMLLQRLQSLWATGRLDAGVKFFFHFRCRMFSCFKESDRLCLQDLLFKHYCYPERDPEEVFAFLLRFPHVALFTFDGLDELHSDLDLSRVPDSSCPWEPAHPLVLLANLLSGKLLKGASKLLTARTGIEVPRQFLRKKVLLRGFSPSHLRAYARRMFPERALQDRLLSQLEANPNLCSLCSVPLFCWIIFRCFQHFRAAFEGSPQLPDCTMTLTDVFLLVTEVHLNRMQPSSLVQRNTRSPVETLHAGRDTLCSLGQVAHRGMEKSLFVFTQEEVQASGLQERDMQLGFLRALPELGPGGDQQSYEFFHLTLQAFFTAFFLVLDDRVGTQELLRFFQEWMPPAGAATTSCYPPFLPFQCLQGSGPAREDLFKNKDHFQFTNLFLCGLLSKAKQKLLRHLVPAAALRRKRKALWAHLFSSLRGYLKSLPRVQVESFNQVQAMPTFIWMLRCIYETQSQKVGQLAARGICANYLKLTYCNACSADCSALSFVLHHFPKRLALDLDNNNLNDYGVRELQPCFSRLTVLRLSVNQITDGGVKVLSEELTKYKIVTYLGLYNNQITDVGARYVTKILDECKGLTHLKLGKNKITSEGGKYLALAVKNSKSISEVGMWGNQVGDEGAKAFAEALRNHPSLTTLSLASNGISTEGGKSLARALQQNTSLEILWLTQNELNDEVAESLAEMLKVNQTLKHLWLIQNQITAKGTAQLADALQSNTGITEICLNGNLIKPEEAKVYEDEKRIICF

T3: Nod1 (human, UniProt Q9Y239 1-953)
T3 construct: also called wild-type Nod1; WT Nod1
T3 sequence: T1 sequence with Q41V

B1: Caspase-9 C287S (enzyme, UniProt P55211 1-416, looked up)
chain: MDEADRRLLRRCRLRLVEELQVDQLWDALLSRELFRPHMIEDIQRAGSGSRRDQARQLIIDLETRGSQALPLFISCLEDTGQDMLASFLRTNRQAAKLSKPTLENLTPVVLRPEIRKPEVLRPETPRPVDIGSGGFGDVGALESLRGNADLAYILSMEPCGHCLIINNVNFCRESGLRTRTGSNIDCEKLRRRFSSLHFMVEVKGDLTAKKMVLALLELAQQDHGALDCCVVVILSHGCQASHLQFPGAVYGTDGCPVSVEKIVNIFNGTSCPSLGGKPKLFFIQASGGEQKDHGFEVASTSPEDESPGSNPEPDATPFQEGLRTFDQLDAISSLPTPSDIFVSYSTFPGFVSWRDPKSGSWYVETLDDIFEQWAHSEDLQSLLLRVANAVSVKGIYKQMPGCFNFLRKKLFFKTS
notes: Named only once, in the sentence on Nod1 V41Q
B2: Caspase-9 (enzyme, UniProt P55211 1-416, looked up)
chain: B1 chain with S287C
notes: also called procaspase-9; procaspas-9
B3: NIK (enzyme, UniProt Q99558 1-947, looked up)
chain: MAVMEMACPGAPGSAVGQQKELPKAKEKTPPLGKKQSSVYKLEAVEKSPVFCGKWEILNDVITKGTAKEGSEAGPAAISIIAQAECENSQEFSPTFSERIFIAGSKQYSQSESLDQIPNNVAHATEGKMARVCWKGKRRSKARKKRKKKSSKSLAHAGVALAKPLPRTPEQESCTIPVQEDESPLGAPYVRNTPQFTKPLKEPGLGQLCFKQLGEGLRPALPRSELHKLISPLQCLNHVWKLHHPQDGGPLPLPTHPFPYSRLPHPFPFHPLQPWKPHPLESFLGKLACVDSQKPLPDPHLSKLACVDSPKPLPGPHLEPSCLSRGAHEKFSVEEYLVHALQGSVSSGQAHSLTSLAKTWAARGSRSREPSPKTEDNEGVLLTEKLKPVDYEYREEVHWATHQLRLGRGSFGEVHRMEDKQTGFQCAVKKVRLEVFRAEELMACAGLTSPRIVPLYGAVREGPWVNIFMELLEGGSLGQLVKEQGCLPEDRALYYLGQALEGLEYLHSRRILHGDVKADNVLLSSDGSHAALCDFGHAVCLQPDGLGKSLLTGDYIPGTETHMAPEVVLGRSCDAKVDVWSSCCMMLHMLNGCHPWTQFFRGPLCLKIASEPPPVREIPPSCAPLTAQAIQEGLRKEPIHRVSAAELGGKVNRALQQVGGLKSPWRGEYKEPRHPPPNQANYHQTLHAQPRELSPRAPGPRPAEETTGRAPKLQPPLPPEPPEPNKSPPLTLSKEESGMWEPLPLSSLEPAPARNPSSPERKATVPEQELQQLEIELFLNSLSQPFSLEEQEQILSCLSIDSLSLSDDSEKNPSKASQSSRDTLSSGVHSWSSQAEARSSSWNMVLARGRPTDTPSYFNGVKVQIQSLNGEHLHIREFHRVKVGDIATGISSQIPAAAFSLVTKDGQPVRYDMEVPDSGIDLQCTLAPDGSFAWSWRVKHGQLENRP
notes: also called N1K
B4: Nod1 mutant, residues 649-953 (other)
chain: MPTFIWMLRCIYETQSQKVGQLAARGICANYLKLTYCNACSADCSALSFVLHHFPKRLALDLDNNNLNDYGVRELQPCFSRLTVLRLSVNQITDGGVKVLSEELTKYKIVTYLGLYNNQITDVGARYVTKILDECKGLTHLKLGKNKITSEGGKYLALAVKNSKSISEVGMWGNQVGDEGAKAFAEALRNHPSLTTLSLASNGISTEGGKSLARALQQNTSLEILWLTQNELNDEVAESLAEMLKVNQTLKHLWLIQNQITAKGTAQLADALQSNTGITEICLNGNLIKPEEAKVYEDEKRIICF
notes: also called the LRRs of Nod1; mutant containing the LRRs

Key:
Nod1 V41Q = target: T1, Nod1 V41Q; assay: co-immunoprecipitation from co-transfected 293T cells, immunoblot
From the text: (§1) Both Ced-4 and Apaf-1 associate with their target caspases via their corresponding CARDs (Zou et al., Cell, 90:405 (1997); Hu et al., Proc. Natl. Acad. Sci. USA, 95:4386 (1998); ); Chinnaiyan et al., Nature, 388:728 (1997); Hu et al., Proc. Natl. Acad. Sci. USA, 95:4386 (1998); Srinivasula et al., Mol. Cell, 1:946 (1998); Chaudhary et al., J. Biol. Chem., 273:17708 (1998); Yang et al., Science, 281:1355 (1998)).

[1] = target: T2, Nod1 mutant, residues 126-953; assay: as above
From the text: as §1

Nod1 = target: T3, Nod1; assay: co-immunoprecipitation, tagged proteins transiently expressed in 293T cells
From the text: The CARD and its structurally related death effector domain (DED) are peptide motifs that mediate interactions between apoptosis-regulatory proteins (Science 281:1301 (1998); Hofmann et al., Trends Biochem. Sci. 22:155 (1998)).

Caspase-9 = target: B2; assay: co-immunoprecipitation from co-transfected 293T cells, immunoblot
From the text: as §1

RICK = target: T4, RICK (UniProt O43353 1-540); assay: co-transfection of WT or mutant Nod1 and RICK in 293T cells
T4 construct: also called serine-threonine kinase with a CARD
T4 sequence (O43353 whole entry): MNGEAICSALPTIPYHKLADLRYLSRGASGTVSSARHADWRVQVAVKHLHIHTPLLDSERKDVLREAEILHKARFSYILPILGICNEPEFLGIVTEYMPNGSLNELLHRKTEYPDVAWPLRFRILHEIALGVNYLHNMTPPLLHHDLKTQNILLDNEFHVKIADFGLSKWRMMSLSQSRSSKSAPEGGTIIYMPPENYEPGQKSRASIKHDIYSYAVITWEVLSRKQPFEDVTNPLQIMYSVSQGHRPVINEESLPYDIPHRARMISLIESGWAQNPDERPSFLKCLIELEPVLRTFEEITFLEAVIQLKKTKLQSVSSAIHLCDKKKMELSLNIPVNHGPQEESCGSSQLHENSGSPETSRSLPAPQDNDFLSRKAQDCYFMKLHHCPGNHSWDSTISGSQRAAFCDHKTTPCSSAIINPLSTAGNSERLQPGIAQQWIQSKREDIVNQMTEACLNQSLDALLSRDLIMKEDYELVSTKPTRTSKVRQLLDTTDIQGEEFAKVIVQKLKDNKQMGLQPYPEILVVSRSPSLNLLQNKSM

Binder: B1
binding result (Nod1 V41Q): no binding

Binder: B2
binding result [1]: no binding

Binder: B3
binding result (Nod1): no binding

Binder: B4
binding result (Caspase-9): no binding
binding result (RICK): no binding
